Laboratory results as given in patent US20050064507.

How the values were obtained:
[1] = target: T1, ribosomal protein S6 peptide AKRRRLSSLRASTSK (SEQ ID NO:120) (not fully specified)
T1 chain: AKRRRLSSLRASTSK

[2] = target: T2, DGKZ peptide KKKKRASFKRKSSKKG (SEQ ID NO:77) (not fully specified)
T2 chain: KKKKRASFKRKSSKKG

[3] = target: T3, NCF1 peptide GAPPRRSSIRNAH (SEQ ID NO:101) (not fully specified)
T3 chain: GAPPRRSSIRNAH

[4] = target: T4, PLD1 peptide KYKAFIRIPIPTRRHTFRRQ (SEQ ID NO:161) (not fully specified)
T4 chain: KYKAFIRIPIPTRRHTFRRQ

[5] = target: T5, GABA A receptor beta 2 peptide ERHVAQKKSRLRRRASQLKI (SEQ ID NO:142) (not fully specified)
T5 chain: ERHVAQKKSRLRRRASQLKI

[6] = target: T6, beta adducin peptide PSKSPSKKKKKFRTPSFLKK (SEQ ID NO:137) (not fully specified)
T6 chain: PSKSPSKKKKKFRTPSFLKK

[7] = target: T7, ERN1 peptide KLAVGRHSFSRRSGV (SEQ ID NO:94) (not fully specified)
T7 chain: KLAVGRHSFSRRSGV

[8] = target: T8, AF15q14 peptide GFLNEPLSSKSQRRKSLKLK (SEQ ID NO:132) (not fully specified)
T8 chain: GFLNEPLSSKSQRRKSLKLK

[9] = target: T9, MARCKS peptide KKRFSFKKSFKLSGFSFKKN (SEQ ID NO:119) (not fully specified)
T9 chain: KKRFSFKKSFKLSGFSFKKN

[10] = target: T10, HERG peptide TELEGGFSRQRKRKLSFRRR (SEQ ID NO:140) (not fully specified)
T10 chain: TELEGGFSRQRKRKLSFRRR

[11] = target: T11, AKAP12 peptide AGWRKKTSFRKPKED (SEQ ID NO:99) (not fully specified)
T11 chain: AGWRKKTSFRKPKED

[12] = target: T12, ERN1 peptide ISDFGLAKKLAVGRHSFSRR (SEQ ID NO:145) (not fully specified)
T12 chain: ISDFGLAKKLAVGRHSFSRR

[13] = target: T13, GABRB2 peptide QKKSRLRRRASQLKI (SEQ ID NO:84) (not fully specified)
T13 chain: QKKSRLRRRASQLKI

[14] = target: T14, ankyrin R peptide DLIEGRKGAQIVKRASLKRG (SEQ ID NO:152) (not fully specified)
T14 chain: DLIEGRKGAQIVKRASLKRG

[15] = target: T15, fit1 peptide VQMTWSYPDEKNKRASVRRR (SEQ ID NO:158) (not fully specified)
T15 chain: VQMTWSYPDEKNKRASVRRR

[16] = target: T16, ARHGAP6 peptide DGQKRKKSLRKKLD (SEQ ID NO:92) (not fully specified)
T16 chain: DGQKRKKSLRKKLD

[17] = target: T17, nuclear RNA export factor 3 peptide VRYTPYTISPYNRKGSFRKQ (SEQ ID NO:143) (not fully specified)
T17 chain: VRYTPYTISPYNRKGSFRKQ

[18] = target: T18, PSCDBP peptide LSSMFGTLPRKSRKGSVRKQ (SEQ ID NO:144) (not fully specified)
T18 chain: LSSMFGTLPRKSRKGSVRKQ

[19] = target: T19, plectin peptide PLKEKKRERKTSSKSSVRKR (SEQ ID NO:125) (not fully specified)
T19 chain: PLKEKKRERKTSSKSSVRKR

[20] = target: T20, dag kinase zeta peptide RPQNTLKASKKKKRASFKRK (SEQ ID NO:118) (not fully specified)
T20 chain: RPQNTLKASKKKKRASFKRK

[21] = target: T21, ARHGAP4 peptide AGPLRKSSLKKGGRL (SEQ ID NO:98) (not fully specified)
T21 chain: AGPLRKSSLKKGGRL

[22] = target: T22, SDPR peptide EKIKRSSLKKVDSLKK (SEQ ID NO:104) (not fully specified)
T22 chain: EKIKRSSLKKVDSLKK

[23] = target: T23, MARCKS peptide PSPSNETPKKKKKRFSFKKS (SEQ ID NO:157) (not fully specified)
T23 chain: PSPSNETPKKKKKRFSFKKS

[24] = target: T24, PSCD2 peptide AARKKRISVKKKQEQ (SEQ ID NO:93) (not fully specified)
T24 chain: AARKKRISVKKKQEQ

[25] = target: T25, MYBPC3 peptide LLKKRDSFRTPRDSKLE (SEQ ID NO:103) (not fully specified)
T25 chain: LLKKRDSFRTPRDSKLE

[26] = target: T26, gravin peptide KKFFTQGWAGWRKKTSFRKP (SEQ ID NO:154) (not fully specified)
T26 chain: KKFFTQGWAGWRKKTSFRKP

[27] = target: T27, NIK peptide TEGKMARVAWKGKRRSKARK (SEQ ID NO:164) (not fully specified)
T27 chain: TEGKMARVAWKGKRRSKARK

[28] = target: T28, KCNH2 peptide RQRKRKLSFRRRTDKD (SEQ ID NO:86) (not fully specified)
T28 chain: RQRKRKLSFRRRTDKD

[29] = target: T29, cytohesin-2 peptide VDPFYEMLAARKKRISVKKK (SEQ ID NO:150) (not fully specified)
T29 chain: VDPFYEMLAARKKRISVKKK

[30] = target: T30, ANK1 peptide AQIVKRASLKRGKQ (SEQ ID NO:90) (not fully specified)
T30 chain: AQIVKRASLKRGKQ

[31] = target: T31, NEURL peptide ALRRPSLRREADD (SEQ ID NO:105) (not fully specified)
T31 chain: ALRRPSLRREADD

B1: PKC-theta (protein)
chain: MSPFLRIGLSNFDCGSCQSCQGEAVNPYCAVLVKEYVESENGQMYIQKKPTMYPPWDSTFDAHINKGRVMQIIVKGKNVDLISETTVELYSLAERCRKNNGKTEIWLELKPQGRMLMNARYFLEMSDTKDMNEFETEGFFALHQRRGAIKQAKVHHVKCHEFTATFFPQPTFCSVCHEFVWGLNKQGYQCRQCNAAIHKKCIDKVIAKCTGSAINSRETMFHKERFKIDMPHRFKVYNYKSPTFCEHCGTLLWGLARQGLKCDACGMNVHHRCQTKVANLCGINQKLMAEALAMIESTQQARCLRDTEQIFREGPVEIGLPCSIKNEARPPCLPTPGKREPQGISWESPLDEVDKMCHLPEPELNKERPSLQIKLKIEDFILHKMLGKGSFGKVFLAEFKKTNQFFAIKALKKDVVLMDDDVECTMVEKRVLSLAWEHPFLTHMFCTFQTKENLFFVMEYLNGGDLMYHIQSCHKFDLSRATFYAAEIILGLQFLHSKGIVYRDLKLDNILLDKDGHIKIADFGMCKENMLGDAKTNTFCGTPDYIAPEILLGQKYNHSVDWWSFGVLLYEMLIGQSPFHGQDEEELFHSIRMDNPFYPRWLEKEAKDLLVKLFVREPEKRLGVRGDIRQHPLFREINWEELERKEIDPPFRPKVKSPFDCSNFDKEFLNEKPRLSFADRALINSMDQNMFRNFSFMNPGMERLIS
[1]
  in vitro phosphorylation, 1 uM peptide (% of best substrate): 51
  in vitro phosphorylation, 10 uM peptide (% of best substrate): 51
[2]
  in vitro phosphorylation (% of best substrate): 74
[3]
  in vitro phosphorylation (% of best substrate): 29
[4]
  in vitro phosphorylation, 1 uM peptide (% of best substrate): 19
  in vitro phosphorylation, 10 uM peptide (% of best substrate): 23
[5]
  in vitro phosphorylation, 1 uM peptide (% of best substrate): 28
  in vitro phosphorylation, 10 uM peptide (% of best substrate): 37
[6]
  in vitro phosphorylation, 1 uM peptide (% of best substrate): 40
  in vitro phosphorylation, 10 uM peptide (% of best substrate): 19
[7]
  in vitro phosphorylation (% of best substrate): 86
[8]
  in vitro phosphorylation, 1 uM peptide (% of best substrate): 34
  in vitro phosphorylation, 10 uM peptide (% of best substrate): 40
[9]
  in vitro phosphorylation, 1 uM peptide (% of best substrate): 69
  in vitro phosphorylation, 10 uM peptide (% of best substrate): 28
[10]
  in vitro phosphorylation, 1 uM peptide (% of best substrate): 25
  in vitro phosphorylation, 10 uM peptide (% of best substrate): 35
[11]
  in vitro phosphorylation (% of best substrate): 25
[12]
  in vitro phosphorylation, 1 uM peptide (% of best substrate): 27
  in vitro phosphorylation, 10 uM peptide (% of best substrate): 25
[13]
  in vitro phosphorylation (% of best substrate): 87
[14]
  in vitro phosphorylation, 1 uM peptide (% of best substrate): 31
  in vitro phosphorylation, 10 uM peptide (% of best substrate): 30
[15]
  in vitro phosphorylation, 1 uM peptide (% of best substrate): 19
  in vitro phosphorylation, 10 uM peptide (% of best substrate): 23
[16]
  in vitro phosphorylation (% of best substrate): 47
[17]
  in vitro phosphorylation, 1 uM peptide (% of best substrate): 25
  in vitro phosphorylation, 10 uM peptide (% of best substrate): 27
[18]
  in vitro phosphorylation, 1 uM peptide (% of best substrate): 35
  in vitro phosphorylation, 10 uM peptide (% of best substrate): 22
[19]
  in vitro phosphorylation, 1 uM peptide (% of best substrate): 39
  in vitro phosphorylation, 10 uM peptide (% of best substrate): 100
[20]
  in vitro phosphorylation, 1 uM peptide (% of best substrate): 67
  in vitro phosphorylation, 10 uM peptide (% of best substrate): 52
[21]
  in vitro phosphorylation (% of best substrate): 22
[22]
  in vitro phosphorylation (% of best substrate): 25
[23]
  in vitro phosphorylation, 1 uM peptide (% of best substrate): 20
  in vitro phosphorylation, 10 uM peptide (% of best substrate): 23
[24]
  in vitro phosphorylation (% of best substrate): 40
[25]
  in vitro phosphorylation (% of best substrate): 24
[26]
  in vitro phosphorylation, 1 uM peptide (% of best substrate): 34
  in vitro phosphorylation, 10 uM peptide (% of best substrate): 21
[27]
  in vitro phosphorylation, 1 uM peptide (% of best substrate): 24
  in vitro phosphorylation, 10 uM peptide (% of best substrate): 20
[28]
  in vitro phosphorylation (% of best substrate): 38
[29]
  in vitro phosphorylation, 1 uM peptide (% of best substrate): 35
  in vitro phosphorylation, 10 uM peptide (% of best substrate): 35
[30]
  in vitro phosphorylation (% of best substrate): 38
[31]
  in vitro phosphorylation (% of best substrate): 21
